Results on two molecules are retold here after PMC4110399 (Current Biology, 2014).

For experiment [1], the target named is recombinant VPS35/VPS29 complex (wild type) (UniProt Q96QK1 1-796; Q9UBQ0 1-182). In words: ITC; FAM21 R20-21 titrated into the VPS35/VPS29 complex; three experiments for each complex with two independently prepared protein samples; global fitting with SEDPHAT. The conditions noted are these: both partners purified. A general note: In ITC the heat of successive injections is recorded.

Experiment [2] deals with recombinant VPS35(D620N)/VPS29 complex (UniProt Q96QK1 1-796; Q9UBQ0 1-182, D620N). The experiment is described as above. The following applies: both partners purified.

B1: FAM21 R20-21 fragment (domain or fragment)
chain: KSKKKVEAKSIFDDDMDDIFSTGIQAKTTKPKSRSAQAAPEPRFEHKVSNIFDDPLNAFGGQ
modifications: Limits not printed (construct is in cited ref 16); taken as the C-terminal tail spanning LFa motifs 20-21. The LFa 20/21 positions are recalled from the entry's annotation and not shown in the …
One may read the Kd as the equilibrium constant for the complex coming apart. As a reminder, the stoichiometry N is a count of units in the complex or per binding partner. Regarding B1, in experiment [1], the Kd worked out at 2.4 µM and the “stoichiometry N” value was 2 R20-21 per VPS35/VPS29 (by the order of the sentence).

B2: FAM21 R20-21 fragment (domain or fragment)
chain: B1 chain
B2: the Kd in experiment [2] was 4.6 µM.
